In US5807824A, “C5A receptor antagonists having substantially no agonist activity” (priority 1995, dated 1998):

Columns and labels:
C5a receptor [1] = biological target: T1, C5a receptor (Homo sapiens, UniProt P21730); assay: Receptor binding assay: displacement of [125I]Bolton-Hunter labelled C5a from PMNL membranes
T1 construct: Neutrophils were purified from human peripheral blood; endogenous in cells; host or cells: neutrophils from human peripheral blood
T1 sequence (P21730 1-350): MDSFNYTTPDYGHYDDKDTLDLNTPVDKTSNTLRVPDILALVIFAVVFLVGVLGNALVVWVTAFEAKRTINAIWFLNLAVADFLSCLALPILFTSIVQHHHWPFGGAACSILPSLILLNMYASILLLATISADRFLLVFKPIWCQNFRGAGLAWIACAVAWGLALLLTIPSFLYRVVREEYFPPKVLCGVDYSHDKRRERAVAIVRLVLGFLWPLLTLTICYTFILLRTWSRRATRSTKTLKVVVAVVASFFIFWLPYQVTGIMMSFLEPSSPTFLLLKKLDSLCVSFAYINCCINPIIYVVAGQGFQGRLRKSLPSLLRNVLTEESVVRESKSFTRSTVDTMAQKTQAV
Method: C5a and C5a receptor antagonists were tested for their affinity for the C5a receptor. […] PMNLs were resuspended in Hanks balanced salt solution, without Ca^++ and Mg^++ and which contained 10 mM HEPES at pH 7.3, 2.5 mM MgCl2, 100 units/ml DNAse I, 0.1 mM PMSF, 10 μg/ml aprotonin and 10 μg/ml leupeptin. They were then equilibrated at 400 psi for 20 min at 4° C. in a nitrogen cavitation bomb. After evacuation into 3 volumes 0.5M KHCO3 containing 25 mM EDTA and the protease inhibitors listed above, the gelatinous material was removed with forceps and the mixture was centrifuged at 400×g for 10 min at 4° C. The resulting supernatant was centrifuged at 50,000×g for 60 min at 4° C. The pellets from the aliquots representing 200×10^6 cells were stored at -70° C. For binding studies, these membranes were resuspended at an equivalent of 20×10^6 cells/ml in 50 mM HEPES at pH 7.3, containing 1 mM CaCl2, 5 mM MgCl2, 0.1 mM PMSF, 0.1% bacitracin and 0.5% BSA.
Nonspecific binding was determined in the presence of 10 nM unlabelled C5a. The binding reaction was initiated by the addition of the PMNL membranes and was continued for 120 min at 4° C. Bound and free radioactivity were separated by vacuum filtration through GF/C glass fiber filters (Whatman), pretreated for 90 min with 0.05% PEI (polyethyleneimine) using a Cell Harvester (Brandel, Gaithersburg, Md.). Filters were washed with 3×5 ml of ice-cold 5 mM Tris buffer at pH 7.4 and counted in a multiwell Gamma counter (Genesys). Data were analyzed using the non-linear regression analysis program, RS/1 (Bolt, Beranek and Newman, Boston) and expressed as IC50 values. The results are set forth below in Table 4 as Ki values using the Cheng-Presoff equation. See Braunwalder et al., supra.

C5a receptor [2] = biological target: T1, C5a receptor; assay: C5a induced Ca++ rise assay in fura-2 loaded neutrophils; format: cell-based
Text: The antagonism of the instant C5a analogues may be quantified as an IC50 in the calcium rise assay disclosed in Seligmann et al., Agents and Actions 21:375-378 (1987), described in detail in Example 7.
See Hugli et al., CRC Crit. Rev. Immunol. 1:321-326 (1981) and PCT WO 92/10205. A quantitative measure of this property may also be obtained using the calcium rise assay disclosed in Seligmann et al., supra, also described in Example 7. EC50 is a measure of agonistic activity.
Recombinant human C5a was dissolved in Hanks buffer containing 0.01% Tween-20, and all stock dilutions of C5a were made in this buffer. The acetoxymethyl ester of fura-2 (fura 2AM, Molecular Probes) was dissolved in DMSO. Neutrophils were purified from human peripheral blood by sedimentation in 6% hetastarch (HESPAN, DuPont, Waukegan, Ill., followed by counter flow elutriation as described in Chapman-Kirkland et al., J. Immunol. Meth. 142:95-104 (1991). Purified cells (2×10^6/ ml) were mixed with 0.2 uM fura- 2AM and incubated for 30 min at 37° C. in HEPES buffered Hanks solution without calcium or magnesium. Fifteen minutes before the assay, the cell suspension was transferred to a curvette containing a stir bar and calcium was added to 1 mM. The cell suspension was incubated with stirring at 37° C. Assays were terminated within 5 h of cell purification and a standard control response was obtained periodically to insure that the cell responses were not changing over the time of the experiment. The amount of fluorescence was determined using an SLM 8000 spectrofluorometer (SLM-Aminco Instruments, Urbana, Ill.). Curvettes were placed in the fluorometer and after obtaining a baseline for 10 sec, the C5a receptor antagonists to be tested for antagonistic properties were added and any change in fluoresence excitation ratio of 340 nm/380 nm (emission of 510 nm) was measured. Forty seconds after analogue addition, a challenge dose of C5a was added to a final concentration of 100 pM and the resulting change in excitation ratio was measured.
IC50 values were used as a measure of antagonist potency. These values are defined as the concentration of C5a analogue needed to reduce the calcium rise response of the 100 pM C5a challenge dose by 50%. EC50 values were used as a measure of agonist potency. […]

[3] = test system: C5a-induced enhancement in vascular permeability; assay: Rabbit dermal model of inflammation ([125I]-BSA exudation at intradermal sites); format: in vivo, New Zealand White rabbits
Method: All experiments were performed on male New Zealand White rabbits weighing 2.5-3.0 kg. The backs of the rabbits were shaved and 40-50 skin sites were designated with markers of different colors. Different stimuli (i.e., C5a, C5a analogue, C5a+C5a analogue, vehicle control, etc.) were injected intradermally at 0.1 ml/site using a sterile, disposable, 26 gauge, 0.5 in. needle and 1.0 cc tuberculin syringe. I.D. injections were administered in replicates of six, roughly 45 minutes before euthanization. C5a alone was injected at a dose of 50 ng/site, and the C5a receptor antagonists were co-injected at various concentrations with the same dose of C5a. At 20 minutes prior to euthanization, 18-36 uCi of [125I]-labeled bovine serum albumin in 1.0 ml physiological saline were introduced into the systemic circulation via the marginal auricular vein. At 45 minutes, the rabbit was euthanized with an I.V. overdose of sodium pentobarbital. […]
After death, the dorsal skin was excised and pinned to a wooden dissecting board. […] This procedure reduced variation among skin sites and decreased background radioactivity. […] Injection sites were then analyzed for their radioactive content using a Gamma Counter (Genesys).

C5a-induced neutropenia = C5a-induced neutropenia in the rabbit; format: in vivo, New Zealand White rabbits; settings: i.v. bolus; for Inhibition of C5a-induced neutropenia versus vehicle-treated rabbits: 100 ng C5a
Method: All experiments were performed on male New Zealand White rabbits weighing 2.5-3.0 kg. Rabbits were anesthetized with 10 mg/kg xylazine and 50 mg/kg ketamine administered in combination intramuscularly. A 25 gauge butterfly catheter was inserted in the lateral ear vein to use for infusions. Each blood sample (0.2 ml) was collected from the central ear artery into a plastic syringe fitted with a 25 gauge, 5/8 inch needle and charged with 7.5% EDTA as an anticoagulant. Blood was immediately expressed into a microcentrifuge tubes containing 10 microliters of 7.5% EDTA. An initial arterial blood sample (#1) was obtained and immediately thereafter vehicle or the C5a analogue of Example 8 was infused intravenously (bolus injection). Twenty seconds later, a second blood sample (#2) was obtained and twenty seconds thereafter 100 ng of C5a in 0.2 ml were infused intravenously (bolus injection). Twenty seconds later, a third blood (#3) sample was taken. Thirty minutes later, a second round of blood sample (#4)----20 seconds--C5a infusion--20 seconds--blood sample (#5) was performed. Blood samples were evaluated by automated hematologic analysis (Technicon H*1) using software specific for rabbit blood. Reductions in neutrophil counts (number per milliliter) induced by C5a(C5a-induced neutropenia, determined by comparing blood sample #3 to #2 and #5 to #4) were compared between vehicle-treated and C5a analogue-treated animals.

[4] = Table 6, Example 10 comparison with decapeptide

- Ki (C5a receptor [1]; Table 4, [125I]BH-C5a 4.0 pM, PMNL membranes, Cheng-Prusoff): 0.2 nM
- Ki (C5a receptor [1]; [4]): 0.04 nM
- IC50 (C5a receptor [2]; [4]): 51 nM
- Concentration up to which tested with agonist activity not detected (C5a receptor [2]; calcium rise assay): > 3 µM
B1: C5a (1-71, T1M, C27S, Q71C) (protein, UniProt P01031 678-751, looked up, variant T1M C27S Q71C)
C5a anaphylatoxin: MLQKKIEEIAAKYKHSVVKKCCYDGASVNNDETCEQRAARISLGPRCIKAFTECCVVASQLRANISHKDMCLGR
modifications: C5a anaphylatoxin
- Pro-inflammatory reaction (agonist properties in vivo) ([3]; analogue at 175 ng/site intradermally): did not cause a pro-inflammatory reaction
- ID50 (dose causing 50% reduction in radioactivity produced by C5a) ([3]; co-injected intradermally with 50 ng C5a/site): 70 ng/site
- Effect on baseline neutrophil counts (agonistic, C5a-like properties) (C5a-induced neutropenia; before C5a challenge): did not alter baseline neutrophil counts from normal
- Inhibition of C5a-induced neutropenia versus vehicle-treated rabbits (C5a-induced neutropenia; 30-minute C5a challenge interval): 41%
- Inhibition of C5a-induced neutropenia versus vehicle-treated rabbits (C5a-induced neutropenia; 40-second C5a challenge interval): 67%
